Measurements from patent US20260146094A1 (CHIA TAI TIANQING PHARMACEUTICAL GROUP, published 2026).

B1: 1B-1A8-Fc (antibody, human IgG1, V domains shown)
VH: EVQLVESGGGLVQPGGSLRLSCVASGFTFKSYAMDWVRQAPGKGLEWIAGINSAGSPSYEASVKGRFTISRDNAENTLYLQLNSLKTEDTAMYYCTKCRDFRSPYCRPGQGTLVTVSS
notes: also called anti-human c-Met VHH-Fc chimeric antibody 1B-1A8-Fc
B2: 1B-3B11-Fc (antibody, human IgG1, V domains shown)
VH: QVQLVESGGGSVQAGGSLRLSCVVSGYTYSSVAWFRQTPGKEREGVAVINPGGDNTDYTYAVKGRFTISRDSAKSTVFLQMNNLESEDTAMYYCAAGRTFGGTWMDRNKWKYWGQGTLVTVSS
notes: Expressed in CHO; also called anti-human c-Met VHH-Fc chimeric antibody 1B-3B11-Fc
B3: 1B-1B2-Fc (antibody, human IgG1, V domains shown)
VH: EVQLVESGGGSVQAGGSLRLSCTASGFTFDMGWYRQAPGDECELVSSISSDGNSDYLDSVKGRFTISQDNAKNTVYLQMNSLKPEDTAVYYCAANGAGHLVLRPLCGSNAVDAWGQGTLVTVSS
notes: also called anti-human c-Met VHH-Fc chimeric antibody 1B-1B2-Fc
B4: 1B-1C7-Fc (antibody, human IgG1, V domains shown)
VH: QVQLVESGGGLVQPGGSLRLSCAASGYSYSANCVGWFYQAPGKEREGVAAINTGGETATYADFVKGRFTISQDYAKNTVYLQMNSLKSEDTGMYYCAAVGTRKYWDECSLSQHAYKNWGQGTLVTVSS
notes: also called anti-human c-Met VHH-Fc chimeric antibody 1B-1C7-Fc
B5: 1B-1B6-Fc (antibody, human IgG1, V domains shown)
VH: QVQLVESGGDSVQAGGSLRLSCAASAHAYSSGCMGWFRQAPGKGREGVATIYTRNDFTYYSDSVKGRFTISRDDAKNTVYLQVNSLKAEDTAMYYCAAGSPFRYAGAWNVCGLKEEDYNYWGQGTLVTVSS
notes: also called anti-human c-Met VHH-Fc chimeric antibody 1B-1B6-Fc
B6: 3B-1C7-Fc (antibody, human IgG1, V domains shown)
VH: QVQLVESGGDSVQAGGSLRLSCIASGFTFDGTTMGWYRQAPGDECELVSDISSDGNTYYSDSVKGRFTISQGNAKNTVYLQMNSLTPEDTAVYYCAAAEFRLLLRPLCRQDDYGYWGQGTLVTVSS
notes: also called anti-human c-Met VHH-Fc chimeric antibody 3B-1C7-Fc

Key:
[1] = biological target: human c-Met on natural human tumor cell lines (H1993, MKN45, KP4, H441) (human, UniProt P08581 25-1390); assay: cell-based or functional assay
Chain of human c-Met on natural human tumor cell lines (H1993, MKN45, KP4, H441) (P08581 25-1390): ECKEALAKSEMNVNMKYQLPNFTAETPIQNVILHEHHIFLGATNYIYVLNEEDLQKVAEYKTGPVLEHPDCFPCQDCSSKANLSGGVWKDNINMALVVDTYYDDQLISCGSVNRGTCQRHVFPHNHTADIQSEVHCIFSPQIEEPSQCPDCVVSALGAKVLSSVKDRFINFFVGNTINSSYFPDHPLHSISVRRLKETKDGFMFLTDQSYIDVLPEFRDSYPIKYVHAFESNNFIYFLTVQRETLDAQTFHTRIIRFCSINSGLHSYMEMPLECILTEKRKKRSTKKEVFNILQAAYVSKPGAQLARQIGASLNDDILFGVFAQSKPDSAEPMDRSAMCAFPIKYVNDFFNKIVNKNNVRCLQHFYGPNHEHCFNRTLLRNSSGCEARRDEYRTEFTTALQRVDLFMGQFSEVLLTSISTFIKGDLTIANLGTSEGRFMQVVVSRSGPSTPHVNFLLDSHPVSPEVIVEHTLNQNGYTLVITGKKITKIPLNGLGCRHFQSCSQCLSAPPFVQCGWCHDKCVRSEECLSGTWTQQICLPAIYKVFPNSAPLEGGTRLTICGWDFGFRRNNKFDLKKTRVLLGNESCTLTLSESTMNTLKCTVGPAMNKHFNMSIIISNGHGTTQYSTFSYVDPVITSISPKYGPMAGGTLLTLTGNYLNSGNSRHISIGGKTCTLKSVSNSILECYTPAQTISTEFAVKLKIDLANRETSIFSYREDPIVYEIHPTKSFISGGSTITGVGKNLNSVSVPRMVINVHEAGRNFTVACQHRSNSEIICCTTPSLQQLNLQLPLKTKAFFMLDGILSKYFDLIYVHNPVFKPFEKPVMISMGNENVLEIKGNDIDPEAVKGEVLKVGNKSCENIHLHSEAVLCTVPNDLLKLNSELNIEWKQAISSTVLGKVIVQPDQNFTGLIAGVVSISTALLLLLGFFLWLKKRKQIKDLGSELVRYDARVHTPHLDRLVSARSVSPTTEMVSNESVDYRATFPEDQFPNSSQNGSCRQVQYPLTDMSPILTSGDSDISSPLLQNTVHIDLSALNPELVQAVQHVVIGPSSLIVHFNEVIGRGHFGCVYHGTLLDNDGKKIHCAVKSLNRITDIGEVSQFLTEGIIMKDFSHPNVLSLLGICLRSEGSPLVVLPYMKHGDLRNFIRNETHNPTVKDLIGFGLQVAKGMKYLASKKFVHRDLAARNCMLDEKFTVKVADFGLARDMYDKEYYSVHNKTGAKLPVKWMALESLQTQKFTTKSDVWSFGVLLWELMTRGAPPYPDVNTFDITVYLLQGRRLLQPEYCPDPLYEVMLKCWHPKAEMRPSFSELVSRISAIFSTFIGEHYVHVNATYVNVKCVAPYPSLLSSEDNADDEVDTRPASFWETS

[2] = biological target: T1, macaque c-Met on macaque epithelial cell 4MBr-5 (macaque); assay: flow cytometry on 4MBr-5 macaque epithelial cells
T1 construct: whole, on cells; also called 4MBr-5 cell

[3] = biological target: T2, Human c-Met-His (SinoBiological, product catalog No. 10692-H08H) (human, UniProt P08581 25-932); assay: competitive ELISA, coated human c-Met-His, blocking of biotin-HGF
T2 construct: Bought protein; also called human c-Met-His protein; c-Met-His protein; not shown: His tag
T2 sequence (P08581 25-932 limits assumed): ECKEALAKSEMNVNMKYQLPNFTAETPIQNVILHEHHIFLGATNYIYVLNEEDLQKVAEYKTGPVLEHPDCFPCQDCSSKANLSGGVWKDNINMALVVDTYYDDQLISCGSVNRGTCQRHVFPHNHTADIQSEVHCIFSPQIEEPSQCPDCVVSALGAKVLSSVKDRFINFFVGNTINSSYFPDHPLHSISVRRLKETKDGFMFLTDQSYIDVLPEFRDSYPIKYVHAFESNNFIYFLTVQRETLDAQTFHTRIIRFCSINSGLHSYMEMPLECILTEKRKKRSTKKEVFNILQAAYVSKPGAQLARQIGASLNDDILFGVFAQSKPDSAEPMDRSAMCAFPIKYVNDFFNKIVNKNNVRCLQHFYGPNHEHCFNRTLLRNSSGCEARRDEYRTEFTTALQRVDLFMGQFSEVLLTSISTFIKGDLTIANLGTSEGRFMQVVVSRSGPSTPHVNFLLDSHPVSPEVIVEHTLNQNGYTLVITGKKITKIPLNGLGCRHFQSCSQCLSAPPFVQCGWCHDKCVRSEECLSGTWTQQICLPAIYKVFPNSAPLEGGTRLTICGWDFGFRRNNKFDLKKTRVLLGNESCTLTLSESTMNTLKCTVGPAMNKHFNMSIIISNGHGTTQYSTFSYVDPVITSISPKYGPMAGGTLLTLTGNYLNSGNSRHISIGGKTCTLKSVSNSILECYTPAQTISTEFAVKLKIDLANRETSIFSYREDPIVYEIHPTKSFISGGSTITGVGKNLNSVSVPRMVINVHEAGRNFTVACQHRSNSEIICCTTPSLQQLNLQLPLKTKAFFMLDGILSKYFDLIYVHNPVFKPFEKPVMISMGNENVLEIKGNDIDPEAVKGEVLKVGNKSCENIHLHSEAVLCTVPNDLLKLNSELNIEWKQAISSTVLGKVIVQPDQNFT
Protocol: (§1) After the plate was washed, an HRP-conjugated streptavidin (eBioscience, product catalog No. 18-4100-51) was added. The plate was incubated at 25° C. for 1 h and then washed 5 times, and a TMB substrate solution (TIANGEN, product catalog No. PA107) was added at 100 μL/well for color development. The light absorption signal values at the wavelength of 450 nm and the reference wavelength of 650 nm were measured. A curve (FIG. 2A) was fit, and the IC₅₀ values (Table 4) were calculated.

[4] = biological target: T2, Human c-Met-His (SinoBiological, …); assay: competitive ELISA, coated human c-Met-His, blocking of HGFβ
Protocol: as §1
A curve (FIG. 2B) was fit based on the results, and the IC₅₀ values were calculated (Table 4).

Row | Binder | EC50 [2] [nM] | further results
1 | B1 | 0.471 | Phosphorylation inhibition IC50 (nM), H441 cells, Phospho-c-Met (Tyr1234/1235) AlphaLISA [1]: 0.85 nM; Phosphorylation inhibition, Maximum inhibition rate, H441 cells [1]: 90%; IC50 [3]: 3.14 nM; Maximum blocking rate [3]: 63%; IC50 [4]: 3.56 nM; Maximum blocking rate [4]: 75%
2 | B2 | 0.736 | –
3 | B3 | 0.418 | –
4 | B4 | 0.071 | –
5 | B5 | 0.682 | –
6 | B6 | 0.284 | –
